{
  "source": "patent US20250197889",
  "data": [
    {"substance": "SmuCas9 (Simonsiella muelleri Cas9)", "values": [
      {"measurement": "Type II-C Cas9 ortholog cleavage tested for sensitivity to anti-CRISPR proteins", "setting": "certain anti-CRISPRs", "result": "all three Type II-C Cas9 orthologs are inhibited by certain anti-CRISPRs"}
    ]},
    {"substance": "Nme1Cas9-Nme2Cas9PID chimera", "values": [
      {"measurement": "in vitro cleavage by the Nme1Cas9-Nme2Cas9PID chimera in the presence of Acr", "setting": "AcrIIC5Smu", "result": "no inhibition by AcrIIC5Smu on this protein chimera was observed"}
    ]},
    {"substance": "Nme2Cas9 (Neisseria meningitidis strain De10444/De11444 Cas9), recombinant purified protein", "values": [
      {"measurement": "in vitro cleavage of a target DNA by Cas9-sgRNA (10:1 Acr:Cas9 molar ratio)", "setting": "AcrIIC1Nme", "result": "Acrs IIC1Nme, -IIC2Nme, -IIC3Nme and -IIC4Hpa inhibited Nme2Cas9 gene editing activity"},
      {"measurement": "in vitro cleavage of a target DNA by Cas9-sgRNA (10:1 Acr:Cas9 molar ratio)", "setting": "AcrIIC5Smu", "result": "AcrIIC5Smu did not inhibit Nme2Cas9 in vitro even at 10-fold excess"},
      {"measurement": "in vitro cleavage of a target DNA by Cas9-sgRNA (10:1 Acr:Cas9 molar ratio)", "setting": "AcrIIC3Nme", "result": "Acrs IIC1Nme, -IIC2Nme, -IIC3Nme and -IIC4Hpa inhibited Nme2Cas9 gene editing activity"},
      {"measurement": "in vitro cleavage of a target DNA by Cas9-sgRNA (10:1 Acr:Cas9 molar ratio)", "setting": "AcrIIC4Hpa", "result": "Acrs IIC1Nme, -IIC2Nme, -IIC3Nme and -IIC4Hpa inhibited Nme2Cas9 gene editing activity"},
      {"measurement": "in vitro cleavage of a target DNA by Cas9-sgRNA (10:1 Acr:Cas9 molar ratio)", "setting": "AcrIIC2Nme", "result": "Acrs IIC1Nme, -IIC2Nme, -IIC3Nme and -IIC4Hpa inhibited Nme2Cas9 gene editing activity"},
      {"measurement": "in vitro cleavage of a target DNA by Cas9-sgRNA (10:1 ratio of Acr:Cas9)", "setting": "AcrE2", "result": "Nme2Cas9 efficiently cleaves a target containing a protospacer with an N4CC PAM in the presence of AcrE2 and AcrIIC5Smu"}
    ]}
  ]
}
